The data set deals with the molecule itself. Nature of the data set: cryo-EM structure; LDAF1-FLAG/seipin (1–310) sample in PMAL C8, 25 mM HEPES pH 7.4, 150 mM NaCl, 2 mg/ml, PEGylated with MS(PEG)12; 3D classification without symmetry; one class with the luminal domains used; TM region at low resolution.

These results are taken from article PMC9122495, “Seipin transmembrane segments critically function in triglyceride nucleation and lipid droplet budding from the membrane” (eLife, 2022).

B1: seipin (1–310) (domain or fragment, human, UniProt Q96G97 1-310, looked up)
chain: MVNDPPVPALLWAQEVGQVLAGRARRLLLQFGVLFCTILLLLWVSVFLYGSFYYSYMPTVSHLSPVHFYYRTDCDSSTTSLCSFPVANVSLTKGGRDRVLMYGQPYRVTLELELPESPVNQDLGMFLVTISCYTRGGRIISTSSRSVMLHYRSDLLQMLDTLVFSSLLLFGFAEQKQLLEVELYADYRENSYVPTTGAIIEIHSKRIQLYGAYLRIHAHFTGLRYLLYNFPMTCAFIGVASNFTFLSVIVLFSYMQWVWGGIWPRHRFSLQVNIRKRDNSRKEVQRRISAHQPGPEGQEESTPQSDVTED
notes: seipin, human, residues 1-310; No tag is stated for seipin; It was purified through the FLAG tag of co-expressed LDAF1; The sample was treated with MS(PEG)12 methyl-PEG-NHS-ester before cryo-EM; The introduction calls human seipin an undecamer, citing other work; also called human seipin
As to B1, the binding result is “binds”.
